Measured values taken from CN114685654A (GUANGDONG DONGSUNANG PHARMACEUTICAL CO LTD, dated 2022).
Changes are numbered by the printed parent chain.

Tests used:
蛋白A [1] = target: T1, 蛋白A; assay: sandwich ELISA, antibody coated at 2 μg/mL, protein at 5 and 10 ng/mL, detection with HRP mouse anti-human IgG4 Fc
T1 construct: also called FGF21-Fc融合蛋白
T1 chain: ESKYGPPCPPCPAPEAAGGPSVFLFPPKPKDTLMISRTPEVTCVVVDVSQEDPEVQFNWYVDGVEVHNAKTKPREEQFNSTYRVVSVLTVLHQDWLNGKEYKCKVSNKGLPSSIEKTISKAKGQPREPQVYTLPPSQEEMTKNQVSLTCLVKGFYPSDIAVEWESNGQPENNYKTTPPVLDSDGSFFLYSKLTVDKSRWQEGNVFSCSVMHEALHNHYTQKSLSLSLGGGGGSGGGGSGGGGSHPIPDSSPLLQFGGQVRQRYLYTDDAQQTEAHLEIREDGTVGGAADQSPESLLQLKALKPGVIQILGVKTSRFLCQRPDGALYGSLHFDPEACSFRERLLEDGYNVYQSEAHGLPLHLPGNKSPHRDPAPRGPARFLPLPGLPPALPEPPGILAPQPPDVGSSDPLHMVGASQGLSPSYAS

蛋白B [2] = target: T2, 蛋白B; assay: sandwich ELISA, antibody coated at 2 μg/mL, detection with HRP mouse anti-human IgG4 Fc
T2 construct: Counter-screen protein; also called FGF21-Fc融合蛋白
T2 chain: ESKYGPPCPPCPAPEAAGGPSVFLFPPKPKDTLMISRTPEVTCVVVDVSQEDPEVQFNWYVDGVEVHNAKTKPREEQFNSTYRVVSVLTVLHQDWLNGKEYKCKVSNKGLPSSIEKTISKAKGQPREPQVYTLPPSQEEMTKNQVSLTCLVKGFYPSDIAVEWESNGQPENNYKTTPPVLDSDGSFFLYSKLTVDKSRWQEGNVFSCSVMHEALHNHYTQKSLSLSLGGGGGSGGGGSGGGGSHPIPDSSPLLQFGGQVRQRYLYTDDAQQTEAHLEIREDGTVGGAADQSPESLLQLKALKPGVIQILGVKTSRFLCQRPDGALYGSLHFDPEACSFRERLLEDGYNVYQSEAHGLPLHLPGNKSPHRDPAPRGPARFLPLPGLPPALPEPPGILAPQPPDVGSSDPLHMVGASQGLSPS

蛋白B [3] = target: T2, 蛋白B; assay: indirect ELISA, hybridoma supernatant on coated protein
蛋白A [4] = target: T1, 蛋白A; assay: as above
蛋白A [5] = target: T1, 蛋白A; assay: ELISA, protein coated at 0.1, 1, 5 μg/mL, antibody 1 μg/mL
蛋白B [6] = target: T2, 蛋白B; assay: ELISA, protein coated

B1: MM21H (antibody, V domains shown)
VH: QIQLVQSGPELKKTGETVKMSCKASGYTFTNYGMNWVKQAPGKGLKLMGWINTYTGKPTYADDFKGRFAFSLETSASTAYLQINNLKNEDTATYFCATNYYDYDVAYWGQGTLVTVSA
VL: DIVMTQAAFSNPVTLGTSASISCRSSKSLLHSNGITYLYWFLQKPGQSPQVLIYQMSSLASGVPDRFSSSGSGTDFTLRISRVEAEDVGVYYCAQTLELPTFGGGTKLEIK
notes: also called MM21H鼠源单克隆抗体
binding result (蛋白A [1]): binds | binding result (蛋白B [2]): no binding (tested: 5ng/mL、10ng/mL)

B2: MM24H (antibody, V domains shown)
VH: B1 VH with T14P, M20I, I83L, V105I, T115A
VL: B1 VL with S58N
notes: also called MM24H鼠源单克隆抗体
binding result (蛋白B [3]): no binding | binding result (蛋白A [4]): binds

B3: MM24T (antibody, mouse IgG1, kappa, V domains shown)
VH: B1 VH with T14P, M20I, I83L, V105I, T115A
VL: DIVMTQAAFSNPVTLGTSASISCRSSKSLLHSNGITYLYWFLQKPGQSPQVLIYQMSNLASGVPDRFSSSGSGTDFTLRISRVEAEDVGVYYCAQTLELPTFGGGTKLEIKR
notes: only the CDRs are; also called MM24T重组抗体; MM24T抗体
binding result (蛋白A [5]): binds | binding result (蛋白B [6]): no binding (tested: antibody 1μg/mL; coating 0.1、1、5μg/mL)

B4: MM21T (antibody, mouse IgG1, kappa, V domains shown)
VH: B1 VH
VL: B3 VL with N58S
notes: only the CDRs are; also called MM21T重组抗体; MM21T抗体
binding result (蛋白A [5]): binds | binding result (蛋白B [6]): no binding (tested: antibody 1μg/mL; coating 0.1、1、5μg/mL)
